Reference: the DeepSol protein solubility set

Test: soluble on expression in E. coli; label from the status in PepcDB or PDB records
For “MITMKIEDVYIWDINARWLGVTPYQLMENAGASVARVIEEKFGKNLKIAVFCGTGNNGGDGFVAARHLSYENDVTVFLIGEEVKIRSEEAKLNWNILKNLDFVKIKVLKDSSQIRELDLSEFDIIVDALLGAGTRGKPREPIKSAIEKINEYSGKVKIVSIDLPSGYPSEIRVKADFAVTFQWDKEEFKDFKRIIAKIGYPKELKYLVGPAHVKFAYKRKGEHKGQNGKLLIIGGSENYYGAPVLAASAAKHLVDLVFLLLPQNAARRVNDPDLIVREVDGLNFTPEHIKSALELVEKVDAIVIGPGIGVREETKEFVKGIIERVEKPIVVDADGLKIIAEFKDILKGKEIVLTPHAGEFKLLFGEKVPEDLVEKGKVVMRRAKEIGATILLKGKYDVISDGKVWLYNKTGNRGMTTGGTGDVLAGTVGAFLALGNKALKAAAAGAFLVGFAGDLVMEEKGEAFTARDVAEKIPIALKKIIEF”, the “soluble on expression in E. coli” value was “soluble”. In the case of “MIVFSSLQIRRGVRVLLDNATATINPGQKVGLVGKNGCGKSTLLALLKNEISADGGSYTFPGSWQLAWVNQETPALPQAALEYVIDGDREYRQLEAQLHDANERNDGHAIATIHGKLDAIDAWSIRSRAASLLHGLGFSNEQLERPVSDFSGGWRMRLNLAQALICRSDLLLLDEPTNHLDLDAVIWLEKWLKSYQGTLILISHDRDFLDPIVDKIIHIEQQSMFEYTGNYSSFEVQRATRLAQQQAMYESQQERVAHLQSYIDRFRAKATKAKQAQSRIKMLERMELIAPAHVDNPFRFSFRAPESLPNPLLKMEKVSAGYGDRIILDSIKLNLVPGSRIGLLGRNGAGKSTLIKLLAGELAPVSGEIGLAKGIKLGYFAQHQLEYLRADESPIQHLARLAPQELEQKLRDYLGGFGFQGDKVTEETRRFSGGEKARLVLALIVWQRPNLLLLDEPTNHLDLDMRQALTEALIEFEGALVVVSHDRHLLRSTTDDLYLVHDRKVEPFDGDLEDYQQWLSDVQKQENQTDEAPKENANSAQARKDQKRREAELRAQTQPLRKEIARLEKEMEKLNAQLAQAEEKLGDSELYDQSRKAELTACLQQQASAKSGLEECEMAWLEAQEQLEQMLLEGQSN”, the “soluble on expression in E. coli” value is reported as “soluble”. In the case of “MIVMATCLLPDETDDACARNPWISHELVTSTVGPGDGLDLRAACSTGTLISGGCSADTFPDDELSLMRSGFAPDNRDEWLCSFKSLHESVTYEVATMAFCLNEDPLPAECGCCPPLAEQLTIRQTNEPLRNGPNRLEASCEDDEFLLIGNCMLDVPAVSEVESVTMFRYGYPPTDEHPDGDYSKWGCSWHNPTGYTPRALANAVCLPAQ”, the “soluble on expression in E. coli” value is reported as “not soluble”. For “MIVSFMVAMDENRVIGKDNNLPWRLPSELQYVKKTTMGHPLIMGRKNYEAIGRPLPGRRNIIVTRNEGYHVEGCEVAHSVEEVFELCKNEEEIFIFGGAQIYDLFLPYVDKLYITKIHHAFEGDTFFPEMDMTNWKEVFVEKGLTDEKNPYTYYYHVYEKQQLEHHHHHHHH”, the “soluble on expression in E. coli” value was “soluble”. For “MIYEIGGHEVSIVRATPGLAKSYYDLLMELYEDPNSYILVNYSKDPPQLESIVERSKNWNVHPHYMHFALYKDKVVGFAGSLLGPDYGPEVQPHIAEIYYGVSKGWRKTGLIYALLYTALSDINAKIVKATAYVENLPSINVLLKIGLRIIAVLEENDFHYMSGKMHDDYLFRGFRSDCLNRLPGLLEKHGISVIR”, the “soluble on expression in E. coli” value was “not soluble”. In the case of “MIYEIKFAHGESNVFAISDIELAPQTEVILRSDKGNFYGKIVREISEEANLEIHHTIVREVNEDDLQVIAKLEERSKQAKDKVRQLVIEQGLEMKIIDVAYNFDQMQLFISFTAENRVDFRLLLRELATTFRIRIELRQIGPRDAAKIHGGLGPCGRPLCCSEFVYEFPNVSIKMAKNQNLSLKQNKLNGLCGRLMCCLTYEDSFYKEAQQLFPDFGEFVTTSEGKGKVVGLNVLKNRVKIRFGEYSKDFELAEIEVNHGLEHHHHHH”, the “soluble on expression in E. coli” value is reported as “soluble”. In the case of “MIYPYNSTISLGTVSLNVTDLAKMTTFYTSIIGLQVLSQDTTSRQLTTDGKTVILELRQTPLPGDKAYGLYHTAFLVPDRHSLGLVLNHFLTRSISLEGAADHGHSEAIYLSDPEGNGIEIYHDKAVEHWDIRDNGQIIGVTEPTDTKSILEQLTDIPKHFLLAQDTRIRHVHLSVKNALASSLLYQKVFDLGDKMTIPSASWIASGNYYHHLAFNHWSAPYLKKHQEGAPGLAFLTIHIETPLLFSATLKKARLHGLAILQEDSSSFTTEDEEGIRVNVILGQD”, the “soluble on expression in E. coli” value is reported as “not soluble”. In the case of “MKACGIIVEYNPFHNGHRYHAQQARQQSGAEVVIAIMSGNFLQRGEPALLDKWARAEEALQNGVDLVIELPTAWSVQSADYFAKGGIKLLQALQCESLCFGTDSTSAIDYAAFGQFVQENQSLIDQTFHALTDKQLSYPQKMTAVFRQVYPESRFDFSSPNHILGMSYAKENATYPTPMTLYPIARKQAGFHDATISGKVASATAIRQSVFQQEITQVLPTVPSITAQHLQTQTMISWENYWPFLKYKIVQSSLEELQAIYQMTEGLEYRLKDQIQAAGSFHELMERMKTKRYTWTRLQRLATYILLNMTKEEVETVWQNSYLHVLGFTPKGQAYLKETKAQIQLPVISKVSKENRAMLSLDIRANQLYQMGDSSLKEQNFGRFPLRFSPDT”, the “soluble on expression in E. coli” value is reported as “not soluble”. With “MKAEIISVGTEILLGDIVNTNSQFLAKELASLGIEVYHQSTVGDNKQRLLECFDESLKRSDFVITTGGLGPTGDDMTKETAAEYFGQKLELHKPSLEVLESFFVKTGKKMAENNMKQVYFPKDAIVLKNNNGTAPGAILKKDGKFIIVLPGPPREMKAMFNESVKPYLQQFTNEMLVSKTLRLYGIGESNLELEILDIINEQTNPTVALYAKELEVTIRITAKAENEREAFKLIKPVEEKIKSRVGKYVYTEGDISISEGETALEDAVSKLLVEKNLTIAVAESCTGGLVSSSLINYPGISSVFLEGCVTYSNDSKMKRLGVKRETLEEFGAVSEQTAIEMAEGVAKGLKANIGISTTGVAGPGGGTKEKPVGLVYTAIYINGKTIVKKNIFNGDRRKIRLRATRDLLNELRIQLEKL” the “soluble on expression in E. coli” value was “not soluble”. With “MKAIIISIGDELLKGHRVNTNAPFIARELGNIGIPVTRIITCSDDPQAIRDSVTLALTEAEAVFVTGGLGPTNDDRTRDAVRALLGRGLALDEPSFERIADYFRRRNRPVTEVMKDQAMVIEGSIAIPNTKGTAPGMIIECAPRFAGRHLVLMPGVPAEMEAMMRLTVVPFFAPLSGAFIRHTPVMTMGIGETQLADMIVEVEDSLPSGTTLAYLPHAAGVSLMVSTSGA” the “soluble on expression in E. coli” value was “not soluble”. In the case of “MKAKDVKLLARYLEMLKDPNIIKTQDVFTVIRYISYNSYGKTMAWNWIQLNWDYLVSRFTINDRYLGRIVTIAEPFNTELQLWQMQSFFAKYPNAGAGAKPREQVLETVKNNIEWLNVNRQSIREWFASLP”, the “soluble on expression in E. coli” value is reported as “not soluble”. In the case of “MKAKREALISLFHAIKEEKVDSDIIDLLLLINSIKGIYTTSSCSGRIGILEEPSLGAKPLSRWLIKVHRPMSFEEARDALKRAREGLIFLKSQPPIFHVVAETIENAKLVHEIGLASGFKYTTFKAISSRFLVEINGTEYLTVPLGKDGRIIASDEYLKFAISIGNKMLERGKSKLPRLRDNFEKIKKKLGEDPLFIQLKREILEILEHHHHHH”, the “soluble on expression in E. coli” value is reported as “not soluble”. For “MKALIVDDEPLARNELQYLLNLNDAIDEIEEAENIEETLEKLLYNTFDLIFLDINLMDESGIDLAQKINKMKRSPHIIFATAHEKFAVKAFELNATDYILKPFEKERINQAVNKVDMAKDKSKNKDKTITPKYIDYSDDERAQTHVLPIEVDERIHILNFTDIIALSVNNGITTIDTTKQSYETTETLNHYEKKLPSSLFIKIHRATIVNKEHIQTIEHWFNYTYQLTLTHEFKYQVSRSYMKTFKQQLGLQ”, the “soluble on expression in E. coli” value was “not soluble”. In the case of “MKAPELQIQQWFNSATDLTLADLRGKVIVIEAFQMLCPGCVMHGIPLAQKVRAAFPEDKVAVLGLHTVFEHHEAMTPISLKAFLHEYRIKFPVGVDQPGDGAMPRTMAAYQMRGTPSLLLIDKAGDLRAHHFGDVSELLLGAEIATLLGEAAPSVQKQAGTPQGDANCDNDGCTV”, the “soluble on expression in E. coli” value is reported as “not soluble”. For “MKDSKFPYYFSNALLMLVPRFVYRAQAKRLLSTLTEAEKQYCLERVNYYNKCGQPFTVDSREQSYAKIGEFKKTKGWTYFFDTRQVIRYFPSEFTFNYINGDVTHIPNVPSFIKSRPIHGDNQNSVVLKLNQIRHFKFVDDEMSYHDKKDMVAWRGVGFQPHRCKVIQAFYDHPRCNIGQTRPQEGQPWEKGFMSIEEQLQYKFLLCIEGNDVATNLKWAMSSNSLVIMSKPKYETWFMEGKLEAGIHYVEVQDDYSDLPEKMDYYLANEQEALAIIENAHQWVEQFKDKRKERLISLMVADKYFTLSHQQLEHHHHHH”, the “soluble on expression in E. coli” value was “soluble”. With “MKEDEVNRCQIQNWYPRFKSLTIKTKFHKLPESFINYLIDDSGPFLLPHSVTNEDAMPNRVHNFEEEDDFQVPEEASDDEPLNRPSFPELEIEIRESIETLGGTIIPKLNWSSPKDAAWISPSQNLSCTCFNEIALLFRSSDSLTHDLFNAYDSCSDKVSSRPESFYLALRKWYPSLKPEMEFRCFVKSNELVGICQREVTTFYPVLLNEKDLLKGLIEEFFDDKIRFEFESENYTFDVYVTKERRVKLIDFNTWCGSTLPLMYTWEELEKIHGECDELELRIVESRLSVLPGLKTAVPYDYLDVSAGSGWAQVLKIVEEEFQKDDQSSDEVA” the “soluble on expression in E. coli” value was “soluble”. For “MKEFIIKANKAVTNGEINLKDLPGSSGRLDLLCRCVNSAFFLSHDMRRDTIFYSVNYGSPNPPVALKFVGSELKRVSPDERSIALFIKKALEKDASELWKESTSGIYSSKREFRDIILEKKNEGKRIFYLHLNGKPLEDFEFKNQDDEDFLFVLGDHIGIGDEDEEFLEEIGAEKISLSPLELHADHCIILVHNILDRLK”, the “soluble on expression in E. coli” value was “not soluble”. For “MKEFWVWVEPFDRKIVSVALEAGANAVVIPEKGRVEEVKKVGRITVIAPDGDLKLGEDVVYVLIKGKEDEERAAKYPPNVKVIVETTDWTVIPLENLIAQREELYAVVKNAQEAEVALQTLEKGVKGVVLKSRDINEIKKVGQIVSEHEEKLELVTIKITKILPLGLGDRVCVDTISLLHRGEGMLVGNSSGGMFLVHAETEENPYVAARPFRVNAGAVHMYIRVPNNRTKYLCELKAGDKVMVYDYKGRGRVTYVGRAKVERRPMLLIEGRYENKKLSCILQNAETIRLTKPDGTPISVSELKEGDEVLGYVEEAGRHFGMKVEETIIEKLEHHHHHH”, the “soluble on expression in E. coli” value was “soluble”. With “MKEIIFDDIGSYPLPEGVSREWVQNAFKTRAEDEKLFTVINDAFQQKIDAGVEVPTYPQYQDMNEQFLKVIRDSNCTDSPFEVKLECARIEELEAIETVAKAYKEKFGETLKVRICVTGPTELYLKEFGGTRYTDIYTLFAKSINRFVRNSMKSAKHFKIATVSIDEPSIGLNPELAFDENDVISALTEASKAASKWGADVEIHLHSPLYYNYACETTTINVIGVESAGTPSYLELIDKKMLEDTDSFLRIGIARTDIFSLAGILNEKYCTNIWKDQQYIPEIVSQLETPEVIEKRLKLAYRRFGSLIKYVGPDCGLGSWPNQRIAFILLSNVAQGIKNFRENLLEHHHHHH” the “soluble on expression in E. coli” value was “soluble”. In the case of “MKEIILLVFLSRKEQTNRSANIFSSVLKGFEAQTIVYSLSYQKFYSNRKNKHKDETILVTAIYRCRRNPHGMQLKQCSPSVGSGAKTRTSGRLRP”, the “soluble on expression in E. coli” value is reported as “not soluble”.
